Test results taken from the supplement of paper PMC10126150.
± gives the standard deviation of the averaged measurements.

System: ATP
Assay: switch fluorescence ratio, 500 uM ATP over buffer (Cy3 cluster intensity, sum of 5 cycles each) (fold (ratio)); higher = stronger signal-on switching upon ATP binding; sequences stand for … in TCGTCGGCAGCGTCAGATGTGTATAAGAGACAGTTTTTTTTTTTTTTTTTTTTTTTTT…TC
Conditions: aptamer strand: ATP DNA aptamer (quencher-CACCTGGGGGAGTATTGCGGAGGAAGG + anchor), 100 nM annealed; ATP concentration: 500 uM
In short: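 Switching-strand clusters labelled with Cy3 on a modified Illumina MiSeq flow-cell were annealed to 100 nM quencher-labelled ATP aptamer, imaged in selection buffer, and re-imaged after 15 min with 500 uM ATP at 22 °C. This was done over five cycles with NaOH stripping and re-annealing in between. The fluorescence ratio is summed target-cycle over summed buffer-cycle Cy3 intensity per cluster, averaged per switch-domain sequence, excluding clusters outside 100-1000 RFU.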
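Also: ATP exposure 15 min at 22 °C before imaging.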

Sequence | switch fluorescence ratio
TTCGTTGTGG | 1.031 ± 0.0047
CGGTCATCTT | 0.9991 ± 0.0047
TTTCTTGTTT | 0.985 ± 0.055
TTGGGGCCGT | 1.04 ± 0.047
GCGTTAAGCA | 0.968 ± 0.07
TTTCGAATAT | 0.9836 ± 0.0061
AAATTTGGGC | 0.961 ± 0.02
GGGGGAACGC | 0.998 ± 0.054
ACACTATAAT | 1.09 ± 0.014
TTTGAGGGTC | 0.991 ± 0.037
TGTGATGCCG | 0.976 ± 0.015
GGGATCGCTA | 1 ± 0.018
TAGATAAACT | 0.9969 ± 0.0039
GGGGTTTCCT | 1.11 ± 0.16
GACGGGAAAA | 1.07 ± 0.14
CATTGGAGGA | 1.018 ± 0.0011
GTTGTCGGGT | 1.05 ± 0.12
ATATACATGT | 1.02 ± 0.038
TGTTGTATTT | 1.01 ± 0.022
GGGAGTACGT | 1 ± 0.019
CGCGGTATGG | 1.04 ± 0.022
GGCTCACGGT | 0.98015 ± 0.00082
ATGCGGGATT | 1.01 ± 0.023

Sequence | switch fluorescence ratio
AAATTGGGTA | 0.991 ± 0.024
TTTGGACGGT | 1.015 ± 0.0099
CTTGTAAGAA | 1.02 ± 0.05
CGTTAAAGAT | 1.03 ± 0.023
CACGTATCGG | 1.07 ± 0.029
GGGAAGAGGA | 0.979 ± 0.025
TTTTTCGGGG | 1.02 ± 0.032
GTTGAGCTGG | 0.971 ± 0.019
CGAGGGGGGG | 1.01 ± 0.025
GTACAGGTTT | 1.018 ± 0.0074
ATGTGTCTAT | 0.998 ± 0.036
GCTCTGAGTA | 1.04 ± 0.073
TCATGATGTA | 0.9848 ± 0.0061
AGGGGGTTAG | 0.989 ± 0.03
TCTTGGAGAA | 1.05 ± 0.06
GGAGAATATT | 1.02 ± 0.059
AGTGCAACTG | 1.01 ± 0.03
TGGGGGTTTT | 1 ± 0.032
GCGTTAGCCA | 1.01 ± 0.022
AATGGTAAGG | 0.963 ± 0.033
GGTCTGAGGG | 0.97 ± 0.032
ACGCCGTCGA | 1.035 ± 0.0099
TGTGGGGTAT | 1.07 ± 0.045

Sequence | switch fluorescence ratio
AAGGTATCGG | 0.987 ± 0.037
TAAATTACTA | 1.05 ± 0.04
TATCAGGTAG | 1.001 ± 0.0052
AAAGGGTCAT | 0.9918 ± 0.0086
AGGTGCTCAT | 1.02 ± 0.036
AGTTATATTG | 0.997 ± 0.07
ACTGTGCCGG | 1.02 ± 0.043
AAGTTGCTGG | 0.985 ± 0.019
GGGATCAGCT | 1.006 ± 0.0046
GCCGTTAGCG | 1.02 ± 0.049
AAGTTCGAGA | 1.002 ± 0.0016
AAAACCAGCG | 1.03 ± 0.047
TTATTGGGGC | 1.01 ± 0.03
CATGCCAGAA | 0.981 ± 0.015
TGGGACGGGT | 0.968 ± 0.052
TAGTAGTTAT | 0.9858 ± 0.0052
TCGGTTAATG | 1 ± 0.042
GCCCGCTAAT | 2.25 ± 0.052
TTTCACGCTC | 1.12 ± 0.21
CGACGAACGA | 1.54 ± 0.07
TAGTAAAAAC | 0.9938 ± 0.0061
TGAGTAGATA | 1.01 ± 0.018
TTTGACAAGC | 1.15 ± 0.18

Sequence | switch fluorescence ratio
TTCAGGCATG | 0.999 ± 0.04
ATCAGCCATA | 1.03 ± 0.036
CGGTACTCGA | 0.993 ± 0.015
CGGCATATAG | 1.99 ± 0.2
TTTATGGTTT | 1 ± 0.031
CGGCTGACGA | 1.03 ± 0.041
TTCGTGATTT | 1.02 ± 0.04
GTCCTTATTT | 1.08 ± 0.022
TGCGGCCGGG | 1.01 ± 0.012
GAATGGGATA | 1.04 ± 0.084
TGGGTTCGGA | 0.985 ± 0.023
TGAGGGGTTT | 0.992 ± 0.015
GCTTGCTATT | 0.965 ± 0.021
GGGCGTGGTT | 0.965 ± 0.017
CGGTGTTGTG | 0.986 ± 0.024
TCTGGGGATG | 0.974 ± 0.072
GTGAGAGCAT | 1.05 ± 0.028
TGGTTATTAT | 0.991 ± 0.015
TTTAATCGAG | 1.04 ± 0.037
TTTTAAAGTC | 1.02 ± 0.03
AATAGAGGAG | 1.012 ± 0.007
TTTTCTGTG | 0.977 ± 0.031
TATGGTTATG | 1.008 ± 0.0072

Sequence | switch fluorescence ratio
CATTGTTTGA | 1.03 ± 0.021
GAGAACGGTT | 1.03 ± 0.052
TTTATGTATT | 1 ± 0.022
AACGAATTCA | 1.05 ± 0.017
ATTTTAATAA | 0.99 ± 0.017
TGAGTGCCTA | 0.973 ± 0.047
TTCCTTGCGT | 1.14 ± 0.043
GCTGTATGGC | 1.01 ± 0.027
TTAGTTGAGG | 0.987 ± 0.05
TACTAAGTGG | 1.05 ± 0.015
TATTTGAGA | 1.01 ± 0.019
CGTTTAGTGG | 0.9781 ± 0.0089
AGTTGGGGCG | 1.01 ± 0.039
CCAGTTTGCA | 1.02 ± 0.017
GGGACTATCA | 0.982 ± 0.014
TTATAAATAT | 1.08 ± 0.044
GACGGGGAGG | 0.9995 ± 0.0092
CGGGTATGGT | 1 ± 0.027
TGTAAGCCGG | 1.05 ± 0.07
CCTGGCGCTT | 2.06 ± 0.86
GAGCTTCTAG | 1.03 ± 0.015
TTATTAAAAC | 0.999 ± 0.013
CAATCTACGC | 1.11 ± 0.038

Sequence | switch fluorescence ratio
CAAATAGTGG | 0.943 ± 0.034
ATATGCATGG | 0.969 ± 0.014
AACCTTCGTG | 1.62 ± 0.047
TTTTAGTCAT | 1.01 ± 0.014
AAAAGTGTAT | 0.98 ± 0.03
CACCCGGCGC | 1.17 ± 0.13
TGTCTCAGAT | 0.97948 ± 0.00033
GGGGGGTCAA | 0.967 ± 0.033
CGTTCTGGAG | 1.2 ± 0.038
AGTAATGTTT | 0.994 ± 0.02
TTTAAAGGGT | 1.01 ± 0.031
CAATGCACGG | 1.07 ± 0.0098
ATGAAAGGCT | 1.02 ± 0.0022
GCGTAAAAAG | 1.03 ± 0.011
TCGGGTTCCG | 0.963 ± 0.019
AGACTGACAA | 1.1 ± 0.021
TAACGTCCAG | 0.978 ± 0.012
GCGCGGGGTA | 0.997 ± 0.029
ATAATTTGAT | 0.983 ± 0.023
CCTATAATAG | 1.17 ± 0.064
CAGGGCGGA | 0.993 ± 0.015
TTAAGGGAAT | 1 ± 0.011
GGTTTAAAGT | 1.01 ± 0.014

Sequence | switch fluorescence ratio
GAGTCTAGCG | 1.02 ± 0.064
GCTCCTACGA | 1.46 ± 0.046
TGGGGAATTC | 1.53 ± 0.86
TTTGGGACGC | 1.05 ± 0.088
TTGATACGTG | 1.01 ± 0.058
AGGCTGGGGT | 1.02 ± 0.031
AAAAACCTCG | 1.05 ± 0.013
TACTTAAGTT | 1.01 ± 0.019
TAATATCTTT | 0.995 ± 0.054
GGGGGAAGGA | 0.995 ± 0.036
TTTGGTATGG | 0.997 ± 0.015
AATATTGGGG | 0.981 ± 0.029
ACTGATACGT | 1.12 ± 0.017
GTTTTTTTTT | 1.02 ± 0.07
TGACCGTAGA | 1.03 ± 0.028
GGGCAGAAAG | 1.01 ± 0.075
GTCATAGATT | 0.989 ± 0.011
CATAGGTCAT | 1.03 ± 0.058
TAAGGTGGTT | 0.976 ± 0.034
